The target in assay [1] is SARS-CoV-2 Spike S1 protein (SARS-CoV-2, UniProt P0DTC2 16-685).
Assay [2] deals with T1, HcoV-NL63 S protein (HcoV-NL63, UniProt Q6Q1S2 19-1296).
T1 construct: also called hCov-NL63 S1
T1 sequence: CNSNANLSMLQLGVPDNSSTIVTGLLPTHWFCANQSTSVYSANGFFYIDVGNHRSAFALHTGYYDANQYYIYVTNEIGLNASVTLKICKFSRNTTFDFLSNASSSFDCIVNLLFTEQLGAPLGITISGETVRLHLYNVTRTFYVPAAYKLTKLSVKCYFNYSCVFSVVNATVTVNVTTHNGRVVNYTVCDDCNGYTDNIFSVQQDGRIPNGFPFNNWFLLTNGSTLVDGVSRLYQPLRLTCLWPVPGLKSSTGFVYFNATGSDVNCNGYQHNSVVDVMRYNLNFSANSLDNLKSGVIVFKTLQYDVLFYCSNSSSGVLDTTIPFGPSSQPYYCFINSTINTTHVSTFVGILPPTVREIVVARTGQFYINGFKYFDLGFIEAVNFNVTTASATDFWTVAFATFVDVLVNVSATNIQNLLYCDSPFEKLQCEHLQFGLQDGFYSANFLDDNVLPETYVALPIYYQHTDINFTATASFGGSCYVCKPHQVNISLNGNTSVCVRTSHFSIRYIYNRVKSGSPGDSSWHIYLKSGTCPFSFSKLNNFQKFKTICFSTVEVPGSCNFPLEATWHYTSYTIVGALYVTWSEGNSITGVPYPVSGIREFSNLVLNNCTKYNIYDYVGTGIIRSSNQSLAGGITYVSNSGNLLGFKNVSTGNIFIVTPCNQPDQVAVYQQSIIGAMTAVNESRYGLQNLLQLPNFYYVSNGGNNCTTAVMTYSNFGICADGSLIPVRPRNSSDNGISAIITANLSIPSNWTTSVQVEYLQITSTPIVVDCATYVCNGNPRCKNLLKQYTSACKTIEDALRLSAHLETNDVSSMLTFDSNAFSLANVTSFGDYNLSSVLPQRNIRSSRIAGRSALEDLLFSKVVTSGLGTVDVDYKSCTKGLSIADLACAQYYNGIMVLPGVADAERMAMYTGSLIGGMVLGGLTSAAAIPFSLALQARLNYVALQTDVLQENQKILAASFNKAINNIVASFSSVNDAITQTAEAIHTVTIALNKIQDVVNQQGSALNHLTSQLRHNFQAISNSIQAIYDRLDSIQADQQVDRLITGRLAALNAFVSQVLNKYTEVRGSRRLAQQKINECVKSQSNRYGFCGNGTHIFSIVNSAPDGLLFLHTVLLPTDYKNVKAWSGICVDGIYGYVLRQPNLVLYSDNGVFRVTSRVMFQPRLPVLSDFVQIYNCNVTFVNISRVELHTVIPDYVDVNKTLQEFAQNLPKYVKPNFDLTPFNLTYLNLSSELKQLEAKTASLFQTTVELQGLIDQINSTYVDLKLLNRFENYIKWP
The assay can be described thus: direct ELISA, OD450.

Assay [3] concerns the target T2, HcoV-OC43 S protein (HcoV-OC43, UniProt P36334 14-1297).
T2 sequence: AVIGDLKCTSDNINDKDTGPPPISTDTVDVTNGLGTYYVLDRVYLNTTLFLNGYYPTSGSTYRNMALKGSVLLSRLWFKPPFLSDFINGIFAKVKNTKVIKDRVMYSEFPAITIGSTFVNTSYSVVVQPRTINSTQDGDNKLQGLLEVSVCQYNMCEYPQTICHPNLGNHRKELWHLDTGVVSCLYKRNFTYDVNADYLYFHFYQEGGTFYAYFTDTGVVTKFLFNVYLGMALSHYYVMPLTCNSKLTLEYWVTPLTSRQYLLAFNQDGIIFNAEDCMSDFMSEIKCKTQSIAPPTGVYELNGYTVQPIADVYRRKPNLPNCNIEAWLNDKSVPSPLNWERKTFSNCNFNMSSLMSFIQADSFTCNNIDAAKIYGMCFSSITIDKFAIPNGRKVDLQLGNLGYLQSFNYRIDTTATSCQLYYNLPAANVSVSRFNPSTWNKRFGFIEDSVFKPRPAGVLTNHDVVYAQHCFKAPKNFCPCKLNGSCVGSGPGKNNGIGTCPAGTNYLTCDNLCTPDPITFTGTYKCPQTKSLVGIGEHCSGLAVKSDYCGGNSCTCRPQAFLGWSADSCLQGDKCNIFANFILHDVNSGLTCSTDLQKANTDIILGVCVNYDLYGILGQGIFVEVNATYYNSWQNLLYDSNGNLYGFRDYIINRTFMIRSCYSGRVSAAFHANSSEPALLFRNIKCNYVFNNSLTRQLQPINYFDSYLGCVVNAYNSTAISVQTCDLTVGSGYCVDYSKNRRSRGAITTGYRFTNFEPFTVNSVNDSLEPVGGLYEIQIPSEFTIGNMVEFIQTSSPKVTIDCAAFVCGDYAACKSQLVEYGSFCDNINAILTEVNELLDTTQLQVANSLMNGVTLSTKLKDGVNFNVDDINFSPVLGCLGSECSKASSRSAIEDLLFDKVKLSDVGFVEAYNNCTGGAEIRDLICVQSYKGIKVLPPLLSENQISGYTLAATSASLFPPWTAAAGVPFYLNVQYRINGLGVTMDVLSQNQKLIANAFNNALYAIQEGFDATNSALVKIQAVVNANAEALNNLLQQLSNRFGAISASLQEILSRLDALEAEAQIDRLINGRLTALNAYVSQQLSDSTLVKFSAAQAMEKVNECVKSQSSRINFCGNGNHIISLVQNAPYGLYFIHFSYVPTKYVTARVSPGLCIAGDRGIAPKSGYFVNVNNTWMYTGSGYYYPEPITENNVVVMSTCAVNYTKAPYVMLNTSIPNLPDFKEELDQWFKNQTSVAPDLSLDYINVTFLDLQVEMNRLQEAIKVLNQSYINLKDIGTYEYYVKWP
The assay can be described thus: direct ELISA, OD450. In general terms: An ELISA detects its analyte on a solid surface through an enzyme-linked reagent.

In assay [4] the target is T3, HcoV-229E S protein (HcoV-229E, UniProt P15423 16-1115).
T3 sequence: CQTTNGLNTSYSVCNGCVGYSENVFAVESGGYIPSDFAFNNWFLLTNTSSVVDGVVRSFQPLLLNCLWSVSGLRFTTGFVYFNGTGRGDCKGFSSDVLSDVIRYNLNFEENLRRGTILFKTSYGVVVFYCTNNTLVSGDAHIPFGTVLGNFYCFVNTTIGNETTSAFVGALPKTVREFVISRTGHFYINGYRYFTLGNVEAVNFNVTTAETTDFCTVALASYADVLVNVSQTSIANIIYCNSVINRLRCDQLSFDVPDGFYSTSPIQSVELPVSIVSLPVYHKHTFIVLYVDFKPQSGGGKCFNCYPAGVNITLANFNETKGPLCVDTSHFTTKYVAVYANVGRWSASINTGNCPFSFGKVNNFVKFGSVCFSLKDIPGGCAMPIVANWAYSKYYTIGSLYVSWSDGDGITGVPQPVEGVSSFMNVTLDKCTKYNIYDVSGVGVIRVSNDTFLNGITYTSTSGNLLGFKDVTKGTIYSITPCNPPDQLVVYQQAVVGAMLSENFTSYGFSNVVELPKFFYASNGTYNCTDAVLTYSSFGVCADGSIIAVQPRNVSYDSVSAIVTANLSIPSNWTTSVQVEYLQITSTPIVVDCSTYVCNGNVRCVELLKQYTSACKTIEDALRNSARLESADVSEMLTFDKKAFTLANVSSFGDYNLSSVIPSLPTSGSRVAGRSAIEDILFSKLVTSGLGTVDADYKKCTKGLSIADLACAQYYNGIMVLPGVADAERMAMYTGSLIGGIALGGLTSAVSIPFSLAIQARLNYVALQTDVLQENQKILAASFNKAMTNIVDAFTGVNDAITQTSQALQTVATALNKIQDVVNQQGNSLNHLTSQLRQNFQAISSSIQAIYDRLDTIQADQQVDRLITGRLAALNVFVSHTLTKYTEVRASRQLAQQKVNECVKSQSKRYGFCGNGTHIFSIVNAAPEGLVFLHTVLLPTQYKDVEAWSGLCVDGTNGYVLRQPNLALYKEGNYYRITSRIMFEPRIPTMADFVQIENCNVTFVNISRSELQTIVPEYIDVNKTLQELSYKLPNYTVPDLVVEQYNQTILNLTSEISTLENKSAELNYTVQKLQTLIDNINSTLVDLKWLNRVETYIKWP
Nature of the assay: direct ELISA, OD450.

Assay [5] has as its target RBD (receptor binding domain) of the SARS-CoV-2 S1 (SARS-CoV-2, UniProt P0DTC2 319-541).

The source of these data is patent US20220056111A1 (YUROGEN BIOSYSTEMS, published 2022).

B1: rabbit monoclonal antibody 5E1 against the SARS-CoV-2 S1 (antibody, V domains shown)
VH: QSVEESGGRLVTPGTPLTLTCTVSGIDLSSYAMGWVRQAPGKGLEYIGIIYISGLTYYASWAKGRFTISKTSTTVDLKIPSPTTEDTATYFCARGEYNSHSHYLLWGPGTLVTVSS
VL: AYDMTQTPSSVSEPVGGTVSIKCQASQNIYSNLAWYQQKPGQRPKLLIYDASQLASGVPSRFKGSGSGTEYTLTISGVECADAATYYCQQGFESSDIFNVFGGGTEVVVKG
For orientation: Kd means the constant that tells how readily two partners part at equilibrium. A high value points to lower affinity. By koff is commonly meant the rate constant with which the complex falls apart. The low end stands for slow dissociation, the high end for fast dissociation. The kon is the rate constant with which the complex forms. A high value points to faster complex formation. In assay [1], B1 yielded a dissociation constant (Kd) of no more than 0.138 nM, a koff of no more than 1e-05 s⁻¹ and a kon of 72300 M⁻¹ s⁻¹. Moreover, the binding result in assay [2] is “no binding”. Besides, the binding result in assay [3] is given as “no binding”. In assay [4], the binding result is listed as “no binding”.

B2: rabbit monoclonal antibody 9H1 against the SARS-CoV-2 S1 (antibody, V domains shown)
VH: QSVEESGGRLVTPGTPLTLTCTVSGFSLSRYAMSWVRQAPGKGLEWIGIIVDSGHTAYASWAKGRFTISRTSTTVDLKMTSLTTEDTATYFCARETGGGAFYVFEFWGPGTVVTVSS
VL: AQVLTQTPSSVSAAVGGTVTINCQASEDIYDNLVWYQQKPGQPPKLLIYDASTLAFGVSSRFRGSGSGTHFTLTMRDVQCDDAATYYCQGEFSCSSGDCTAFGGGTEVVVKG
The EC50 (read off the curve) is the concentration that produces a half-maximal response. In the case of B2, in assay [1], the Kd stood at 0.769 nM. The same molecule gave a koff in assay [1] of 0.00025 s⁻¹. In addition, in assay [1], the association rate constant (kon) worked out at 325000 M⁻¹ s⁻¹. The “EC50 (read off the curve)” value in assay [5] was roughly 0.02 µg/mL. The binding result in assay [2], in assay [3] and in assay [4] was “no binding” in each case.
